Source: US20240173442A1 (Hoffmann-La Roche, published 2024)
One block for each binder: values may come before it.

Biological target: T1, carcinoembryonic antigen (CEA) (human, UniProt P06731 35-685)
T1 construct: whole, on cells; also called CEACAM5; Carcinoembryonic antigen-related cell adhesion molecule 5
T1 sequence (looked up): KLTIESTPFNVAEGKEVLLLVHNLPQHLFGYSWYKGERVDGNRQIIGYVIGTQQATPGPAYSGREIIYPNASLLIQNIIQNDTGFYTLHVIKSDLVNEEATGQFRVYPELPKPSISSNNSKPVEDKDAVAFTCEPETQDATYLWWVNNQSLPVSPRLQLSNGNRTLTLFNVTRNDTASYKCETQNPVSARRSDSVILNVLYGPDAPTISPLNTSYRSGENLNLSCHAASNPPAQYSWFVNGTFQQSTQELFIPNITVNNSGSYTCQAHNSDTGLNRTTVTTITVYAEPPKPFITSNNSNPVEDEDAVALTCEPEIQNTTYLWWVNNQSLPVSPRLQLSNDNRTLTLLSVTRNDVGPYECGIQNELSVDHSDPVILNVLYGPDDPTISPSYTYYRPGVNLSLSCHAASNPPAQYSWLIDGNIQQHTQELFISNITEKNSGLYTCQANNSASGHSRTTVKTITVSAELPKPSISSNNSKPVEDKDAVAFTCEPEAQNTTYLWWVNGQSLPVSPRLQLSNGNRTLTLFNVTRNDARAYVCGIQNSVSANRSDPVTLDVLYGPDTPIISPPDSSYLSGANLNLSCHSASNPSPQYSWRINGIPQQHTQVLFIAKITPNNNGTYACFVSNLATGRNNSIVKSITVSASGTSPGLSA
Assay: FACS on MKN-45 cells, detection with anti-huIgG(H+L)-Alexa488
Experimental: MKN-45 cells were detached from the culture bottle using Trypsin and were counted using a Casy cell counter. After pelleting at 4° C., 300 g the cells were resuspended in FACS Buffer (2.5% FCS in PBS), adjusted to 2.0E+06 cells/mL dispensed to 96-well PP V-bottom-Platte (25 μL/well=5.0E+04Zellen/well).
The CEA specific SPLIT antibodies (P1AF0712 or P1AF0713 respectively) were adjusted to 40 μg/mL in FACS buffer, resulting in a final concentration of 10 μg/mL. Both antibodies were added to the cells either separated followed by buffer or combined and incubated at 4° C. for 1 h. The cells were then washed twice in FACS buffer. After washing, the cells were resuspended in 50 μL FACS-buffer containing secondary antibody (<huIgG(H+L)>-Alexa488, c=10 μg/mL) and incubated 1h at 4° C. The cells were then washed twice in FACS buffer and resuspended in 70 μl/well FACS buffer for measurement using a FACS Canto (BD, Pharmingen).

EC50: 2.7 mg/L
B1: P1AF0712 (CEA-split-DOTA-VL, CH1A1A) (antibody, human IgG1, kappa, L234A L235A)
heavy 1: not shown
heavy 2: QVQLVQSGAEVKKPGASVKVSCKASGYTFTEFGMNWVRQAPGQGLEWMGWINTKTGEATYVEEFKGRVTFTTDTSTSTAYMELRSLRSDDTAVYYCARWDFAYYVEAMDYWGQGTTVTVSSASTKGPSVFPLAPSSKSTSGGTAALGCLVKDYFPEPVTVSWNSGALTSGVHTFPAVLQSSGLYSLSSVVTVPSSSLGTQTYICNVNHKPSNTKVDKKVEPKSCDKTHTCPPCPAPEAAGGPSVFLFPPKPKDTLMISRTPEVTCVVVDVSHEDPEVKFNWYVDGVEVHNAKTKPREEQYNSTYRVVSVLTVLHQDWLNGKEYKCKVSNKALGAPIEKTISKAKGQPREPQVCTLPPSRDELTKNQVSLSCAVKGFYPSDIAVEWESNGQPENNYKTTPPVLDSDGSFFLVSKLTVDKSRWQQGNVFSCSVMHEALHNHYTQKSLSLSPGGGGGSGGGGSGGGGSGGGGSQAVVIQESALTTPPGETVTLTCGSSTGAVTASNYANWVQEKPDHLFTGLIGGHNNRPPGVPARFSGSLIGDKAALTIAGTQTEDEAIYFCALWYSDHWVIGGGTKLTVL
light: DIQMTQSPSSLSASVGDRVTITCKASAAVGTYVAWYQQKPGKAPKLLIYSASYRKRGVPSRFSGSGSGTDFTLTISSLQPEDFATYYCHQYYTYPLFTFGQGTKLEIKRTVAAPSVFIFPPSDEQLKSGTASVVCLLNNFYPREAKVQWKVDNALQSGNSQESVTEQDSKDSTYSLSSTLTLSKADYEKHKVYACEVTHQGLSSPVTKSFNRGEC
notes: also called CEA specific SPLIT antibody; P6_A

EC50: 2.3 mg/L
B2: P1AF0713 (CEA-split-DOTA-VH-AST, CH1A1A) (antibody, human IgG1, kappa, L234A L235A)
heavy 1: QVQLVQSGAEVKKPGASVKVSCKASGYTFTEFGMNWVRQAPGQGLEWMGWINTKTGEATYVEEFKGRVTFTTDTSTSTAYMELRSLRSDDTAVYYCARWDFAYYVEAMDYWGQGTTVTVSSASTKGPSVFPLAPSSKSTSGGTAALGCLVKDYFPEPVTVSWNSGALTSGVHTFPAVLQSSGLYSLSSVVTVPSSSLGTQTYICNVNHKPSNTKVDKKVEPKSCDKTHTCPPCPAPEAAGGPSVFLFPPKPKDTLMISRTPEVTCVVVDVSHEDPEVKFNWYVDGVEVHNAKTKPREEQYNSTYRVVSVLTVLHQDWLNGKEYKCKVSNKALGAPIEKTISKAKGQPREPQVCTLPPSRDELTKNQVSLSCAVKGFYPSDIAVEWESNGQPENNYKTTPPVLDSDGSFFLVSKLTVDKSRWQQGNVFSCSVMHEALHNHYTQKSLSLSPG
heavy 2: not shown
light: B1 light
notes: also called CEA specific SPLIT antibody; P6_B
